For five sequences, activity (% editing (6-TG resistance)), activity (% tdTomato-negative cells) and activity (% EGFP-negative cells) results are on record in patent US20220315920.

The data set deals with TfuCascade (Cse2 N23A, Cas7-NLS) + TfuCas3 (Type I-E) Cse2 N23A (Thermobifida fusca). The data set can be described thus: cell_activity. The following applies: PAM AAG; for activity (% editing (6-TG resistance)): HAP1 cells RNP.

On to “AUGGACCGAAGCCGAGGCUCCCCCAGCGAAGCCCCUUUCCGUGAGCCCCACGCACGUGGG / AAGAAGCCGAGGCTCCCCCAGCGAAGCCCCTTTCC / GGAAAGGGGCTTCGCTGGGGGAGCCTCGGCTTCTT [crRNA HPRT-G2 ; HPRT target G2 (PAM+protospacer)]”, for which the activity (% editing (6-TG resistance)) came to 32. As to “AUGGACCGACCUUGCACUACCUGUGGCUUCCAUUUUCCUGGUGAGCCCCACGCACGUGGG / AAGACCTTGCACTACCTGTGGCTTCCATTTTCCTG / CAGGAAAATGGAAGCCACAGGTAGTGCAAGGTCTT [crRNA HPRT-G1 ; HPRT target G1 (PAM+protospacer)]”, the activity (% editing (6-TG resistance)) came out at 67. As to “AUGGACCGCUGGACAUCACCUCCCACAACGAGGACUACACGUGAGCCCCACGCACGUGGG / AAGCTGGACATCACCTCCCACAACGAGGACTACAC / GTGTAGTCCTCGTTGTGGGAGGTGATGTCCAGCTT [crRNA tdTomato ; tdTomato target (PAM+protospacer)]”, the activity (% tdTomato-negative cells) (hESC RNP) was 2.7. “AUGGACCGUCGAUGCCCUUCAGCUCGAUGCGGUUCACCAGGUGAGCCCCACGCACGUGGG / AAGTCGATGCCCTTCAGCTCGATGCGGTTCACCAG / CTGGTGAACCGCATCGAGCTGAAGGGCATCGACTT [crRNA GFP-G2 ; EGFP target G2 (PAM+protospacer)]”: the activity (% EGFP-negative cells) (hESC RNP) amounted to 2.7. “AUGGACCGGCUACGUCCAGGAGCGCACCAUCUUCUUCAAGGUGAGCCCCACGCACGUGGG / AAGGCTACGTCCAGGAGCGCACCATCTTCTTCAAG / CTTGAAGAAGATGGTGCGCTCCTGGACGTAGCCTT [crRNA GFP-G1 ; EGFP target G1 (PAM+protospacer)]”: the activity (% EGFP-negative cells) (hESC RNP electroporation, 80 pmol Cascade, 20 pmol Cas3, 7.3% in FIG. 1D) was determined as 13.1.
